In patent publication US20250011363A1, “OPTIMIZED SHORTENED PEPTIDE THAT BINDS TO ACETYLCHOLINE RECEPTOR, AND USE THEREOF” (SKINMED CO., LTD., priority 2021, published 2025):

molecular target: acetylcholine receptor; experiment: SPR, AchR immobilized on CM5 chip, peptide 10 uM

Binding affinity (RU) | Binder
135 | RRVQTR [6mer-1-392]
153 | KRRISK [6mer-1-379]
148 | RKVICK [6mer-1-384]
148 | KRVFLK [6mer-1-360]
148 | KKQFQK [6mer-1-374]
21 | RRTHER [6mer-1-734]
125 | KKRQTK [6mer-1-395]
153 | KRSLQK [6mer-1-378]
153 | KRGYSK [6mer-1-356]
148 | KKGRLR [6mer-1-387]
133 | KRWFCR [6mer-1-366]
148 | KRQIQK [6mer-1-396]
142 | RRLLQR [6mer-1-388]
126 | KRLYLK [6mer-1-353]
121 | RKLQQR [6mer-1-390]
131 | RRQRCK [6mer-1-391]
142 | RKQLYK [6mer-1-370]
148 | RKVFYR [6mer-1-355]
32 | RKCCEK [6mer-1-739]

Binding affinity (RU) | Binder
123 | KRWQTK [6mer-1-400]
124 | KRRYTR [6mer-1-358]
148 | KRLYYK [6mer-1-393]
15 | KKATDK [6mer-1-736]
148 | RKRRTK [6mer-1-383]
145 | RKLRSK [6mer-1-372]
148 | KRWITR [6mer-1-377]
124 | RKRQSK [6mer-1-364]
25 | RKYHHR [6mer-1-738]
139 | KRQYTR [6mer-1-382]
127 | RKSVQR [6mer-1-361]
127 | KRQVLR [6mer-1-385]
137 | KKQYYR [6mer-1-398]
127 | RRLYCR [6mer-1-401]
125 | KRLILR [6mer-1-397]
19 | RKDKER [6mer-1-735]
124 | RKGFYR [6mer-1-381]
133 | KRVVYK [6mer-1-362]
153 | KRSLTR [6mer-1-371]

Binding affinity (RU) | Binder
149 | KKVRRR [6mer-1-394]
125 | KRWILR [6mer-1-399]
153 | KKVFLK [6mer-1-354]
154 | RKGFSK [6mer-1-367]
21 | KKKMFK [6mer-1-733]
121 | RRQLRK [6mer-1-376]
27 | RRKNAR [6mer-1-737]
127 | RRSYQK [6mer-1-386]
121 | KRQIRR [6mer-1-363]
149 | KRGVLK [6mer-1-373]
144 | KKWYRK [6mer-1-369]
154 | RRVFYR [6mer-1-375]
121 | KRLQLR [6mer-1-380]
131 | KRQFLR [6mer-1-359]
142 | KKRICK [6mer-1-365]
145 | RRRFSK [6mer-1-368]
148 | KRRQTR [6mer-1-357]
125 | RKLFCK [6mer-1-389]
